Data taken from patent US20070178095A1 (Eli Lilly, published 2007).

What was measured:
[1] = molecular target: T1, Activin B (R&D Systems 659-AB) (UniProt P09529 293-407); assay: ELISA, growth factor coated at 10 ug/ml, Fab at 10 ug/ml, mean of duplicate wells
T1 sequence (looked up): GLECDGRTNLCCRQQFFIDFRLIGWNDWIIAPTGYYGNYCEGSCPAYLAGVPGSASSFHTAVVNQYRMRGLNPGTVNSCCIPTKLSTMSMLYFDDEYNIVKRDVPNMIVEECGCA
Description: (§1) Peroxidase-conjugated secondary antibody (50 μl goat anti-mouse kappa HRP (Southern Biotech) for the Fabs, 50 μl rabbit anti-goat (Jackson ImmunoResearch) for the polyclonal, diluted 1:2000 in blocking buffer) is added to each well and incubated for 1 hour at room temperature. The wells are then washed 3 times with washing buffer. Fifty microliters of chromogenic substrate (i.e., OPD substrate) is added to each well and allowed to develop at room temperature for 10 minutes. The reaction is stopped by adding 100 μl 1N HCl to each well. The absorbance of the wells is read at 490 nm.

[2] = molecular target: T2, BMP-5 (R&D Systems 615-BM) (UniProt P22003 317-454, limits assumed); assay: as above
T2 sequence (looked up): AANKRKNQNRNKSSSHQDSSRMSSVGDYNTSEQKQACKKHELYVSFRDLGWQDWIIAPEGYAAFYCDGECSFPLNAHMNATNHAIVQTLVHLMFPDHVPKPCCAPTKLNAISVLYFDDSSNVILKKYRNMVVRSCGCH
Description: as §1

[3] = molecular target: T3, IGF-1 (R&D Systems 291-G1) (UniProt P05019 49-118); assay: as above
T3 construct: Negative control antigen
Description: as §1

[4] = molecular target: T4, TGF-beta1 (Peprotech, Inc. 100-21R) (UniProt P01137 279-390); assay: as above
T4 construct: also called TGF-b1
Description: as §1

[5] = molecular target: T5, BMP-6 (R&D Systems 507-BP) (UniProt P22004 382-513, limits assumed); assay: as above
T5 sequence (looked up): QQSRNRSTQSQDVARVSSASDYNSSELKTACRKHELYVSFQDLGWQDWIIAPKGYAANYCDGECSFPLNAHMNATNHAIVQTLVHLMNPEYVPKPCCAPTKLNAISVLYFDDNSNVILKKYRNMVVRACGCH
Description: as §1

[6] = molecular target: T6, recombinant human GDF-11 (Peprotech, Inc., Cat. # 120-11, carrier-free) (human, UniProt O95390 299-407); assay: as above
T6 construct: also called BMP-11
T6 sequence (looked up): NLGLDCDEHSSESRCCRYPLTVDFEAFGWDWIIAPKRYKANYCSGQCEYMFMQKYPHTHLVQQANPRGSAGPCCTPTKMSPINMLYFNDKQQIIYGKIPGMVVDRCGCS
Description: as §1

[7] = molecular target: T7, BMP-7 (R&D Systems 354-BP) (UniProt P18075 293-431); assay: as above
T7 sequence (looked up): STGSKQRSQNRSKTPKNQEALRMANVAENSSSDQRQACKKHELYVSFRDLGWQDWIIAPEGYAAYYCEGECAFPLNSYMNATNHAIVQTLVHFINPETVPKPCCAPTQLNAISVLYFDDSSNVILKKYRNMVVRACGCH
Description: as §1

[8] = molecular target: TGF-alpha (R&D Systems 239-A) (UniProt P01135 40-89); assay: as above
Description: as §1

[9] = molecular target: T8, TGF-beta2 (Peprotech, Inc. 100-35) (UniProt P61812 303-414); assay: as above
T8 construct: also called TGF-b2
T8 sequence (looked up): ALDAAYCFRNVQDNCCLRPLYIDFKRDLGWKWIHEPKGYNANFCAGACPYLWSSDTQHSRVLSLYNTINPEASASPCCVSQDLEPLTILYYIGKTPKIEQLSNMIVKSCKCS
Description: as §1

[10] = molecular target: T9, recombinant mouse myostatin (R&D systems, Cat. #788-G8/CF, carrier-free) (mouse, UniProt O08689 268-376); assay: as above
T9 construct: mature; also called GDF-8; GDF-8/myostatin
T9 sequence (looked up): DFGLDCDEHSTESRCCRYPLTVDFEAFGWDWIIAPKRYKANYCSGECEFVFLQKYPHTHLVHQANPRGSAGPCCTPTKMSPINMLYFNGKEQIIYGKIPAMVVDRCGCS
Description: as §1

[11] = molecular target: T10, Activin A (R&D Systems 338-AC) (UniProt P08476 311-426); assay: as above
T10 sequence (looked up): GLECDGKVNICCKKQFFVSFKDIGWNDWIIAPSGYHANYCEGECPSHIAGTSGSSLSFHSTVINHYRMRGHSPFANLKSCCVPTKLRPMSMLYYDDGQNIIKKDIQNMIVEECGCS
Description: as §1

[12] = molecular target: BMP-2 (R&D Systems 355-BEC/CF) (UniProt P12643 283-396); assay: as above
Description: as §1

[13] = molecular target: T11, peptide immunogen ANYCSGESEFVFLQKYPHTHLVHQA (human); assay: ELISA, peptide coated at 2 ug/ml, Fab 0.016-10 ug/ml
T11 construct: For immunization it was conjugated to KLH and a helper T-cell peptide; also called immunogenic peptide; immunogenic polypeptide
T11 peptide: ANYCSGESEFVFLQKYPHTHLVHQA
Description: Each well of two 96-well plates is coated with 70 μl of the peptide immunogen used to generate the Fabs (2 μg/ml in carbonate buffer, pH 9.6). The plates are incubated in a dry oven at 37° C. overnight with the lids removed. The wells are aspirated and washed twice with washing buffer (20 mM Tris (hydroxymethyl) aminomethane, pH 7.4, 0.15 M NaCl, 0.1% Tween-20). The plates are blocked with 200 μl blocking buffer per well (5% BioRad blotting grade milk in the above washing buffer) for 2.5 hours.
The Fabs are diluted into blocking buffer at 10 μg/ml, 2 μg/ml, 0.4 μg/ml, 0.08 μg/ml, and 0.016 μg/ml. A rat anti-myostatin monoclonal antibody (R&D Systems, catalog #MAB788, clone #84214) and a polyclonal anti-myostatin antibody (R&D Systems, catalog #AF788), are used as controls at the above concentrations and are also diluted in blocking buffer. Fifty microliters of each antibody solution is added to the peptide-coated wells in duplicate. The plates are incubated for 1.5 hours at room temperature. The wells are then washed 3 times with washing buffer.
as §1, with “for” for “for the”, “Fabs, 50 μl mouse anti-rat (Jackson ImmunoResearch) for monoclonal,” for “Fabs,”, “polyclonal, all” for “polyclonal,”, “buffer” for “buffer)”

T3 sequence (P05019 49-118 limits assumed): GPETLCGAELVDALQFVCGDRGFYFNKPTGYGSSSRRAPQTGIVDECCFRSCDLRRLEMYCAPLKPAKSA
T4 sequence (P01137 279-390 limits assumed): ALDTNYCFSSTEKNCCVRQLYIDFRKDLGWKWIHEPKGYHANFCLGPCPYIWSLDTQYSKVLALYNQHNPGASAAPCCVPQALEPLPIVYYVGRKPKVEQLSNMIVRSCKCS
TGF-alpha (R&D Systems 239-A), sequence (P01135 40-89 limits assumed): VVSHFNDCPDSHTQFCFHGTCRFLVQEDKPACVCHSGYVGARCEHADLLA
BMP-2 (R&D Systems 355-BEC/CF), sequence (P12643 283-396 limits assumed): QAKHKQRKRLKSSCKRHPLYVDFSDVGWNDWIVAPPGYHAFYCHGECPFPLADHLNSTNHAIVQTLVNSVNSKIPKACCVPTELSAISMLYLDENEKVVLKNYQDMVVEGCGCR

B1: Fab 5 (Fab, V domains shown)
VH: QVTLKESGPGILQSSQTLSLTCSFSGFSLSTSGMSVSWIRQSSGKGLEWLAHIYWDDDKRYNPSLRSRLTISKDTSRNQVFLKITSVDTADTATYYCARRGITTVLGGGTMDYWGQGTSVTVSS
VL: QVVLTQSPAIMSASLGEKVTMTCSASSSVHYMHWYQQKSGTSPKRWIYDTSKLASGVPARFSGSGSGTSYSLTISSMEAEDAATYYCQQWSSNPLTFGAGTKLELKR
notes: Mouse Fab, kappa light chain; also called anti-myostatin Fab 5
[1]
  absorbance at 490 nm: 0.033 OD 490 nm
[2]
  absorbance at 490 nm: 0.033 OD 490 nm
[3]
  absorbance at 490 nm: 0.035 OD 490 nm
[4]
  absorbance at 490 nm: 0.0325 OD 490 nm
[5]
  absorbance at 490 nm: 0.0325 OD 490 nm
[6]
  absorbance at 490 nm: 0.034 OD 490 nm
[7]
  absorbance at 490 nm: 0.032 OD 490 nm
[8]
  absorbance at 490 nm: 0.033 OD 490 nm
[9]
  absorbance at 490 nm: 0.034 OD 490 nm
[10]
  absorbance at 490 nm: 0.202 OD 490 nm
[11]
  absorbance at 490 nm: 0.033 OD 490 nm
[12]
  absorbance at 490 nm: 0.032 OD 490 nm
[13]
  binding result: binds
